Laboratory results as given in patent US20210130452A1 (Merck KGaA, published 2021).

T1: rat IL-17F (rat, UniProt Q5BJ95 29-161)
T1 sequence (looked up): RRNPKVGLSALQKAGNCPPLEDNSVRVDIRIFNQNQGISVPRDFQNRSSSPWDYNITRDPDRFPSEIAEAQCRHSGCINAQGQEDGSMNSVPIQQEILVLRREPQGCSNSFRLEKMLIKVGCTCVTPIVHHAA

T2: mouse IL-17F (mouse, UniProt Q7TNI7 29-161)
T2 sequence (looked up): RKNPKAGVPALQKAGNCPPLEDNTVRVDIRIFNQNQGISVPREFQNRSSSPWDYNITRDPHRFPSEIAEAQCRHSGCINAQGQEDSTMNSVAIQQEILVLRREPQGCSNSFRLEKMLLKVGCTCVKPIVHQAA

T3: marmoset IL-17A (marmoset, IL-17A is a disulfide-linked homodimer. One chain is given.)
T3 chain: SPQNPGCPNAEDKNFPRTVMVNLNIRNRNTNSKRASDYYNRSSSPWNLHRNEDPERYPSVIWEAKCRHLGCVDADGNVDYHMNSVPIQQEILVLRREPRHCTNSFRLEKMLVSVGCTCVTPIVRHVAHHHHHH

T4: human IL-17F (human, UniProt Q96PD4 31-163, biotinylated with Sulfo-NHS-LC-Biotin in the AlphaScreen assays only)
T4 construct: also called hIL-17F; recombinant human IL-17F
T4 sequence: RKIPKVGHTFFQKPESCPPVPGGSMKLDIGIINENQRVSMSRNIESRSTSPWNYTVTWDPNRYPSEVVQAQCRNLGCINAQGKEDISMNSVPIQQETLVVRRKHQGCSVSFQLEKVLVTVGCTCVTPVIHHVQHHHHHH

B1: 11C08 (VHH)
VHH: EVQLVESGGGLVQAGGSLRLSCAASGVIFRLNAMGWYRAAPGKQRELVAIIVNGGSTNYADSVKGRFTISRDSAKNAVYLQMNSLKPEDTAVYYCYYNIPGDVYWGQGTQVTVSS
notes: Class 4 Nanobody (cross-reactive: anti-IL-17A, IL-17F and IL-17A/F); not shown: c-myc, His6 tag
B2: 03C07 (VHH)
VHH: EVQLVESGGGLVQAGGSLRLSCAASGFTFDDYAIGWFRQAPGKEREAVSCFSSSDGSIYYADSVKGRFTISSDNAKNTVYLQMNSLKPEDTAVYYCAGGGGSYYYTQLNYCYDMDYWGKGTQVTVSS
notes: Class 2 Nanobody (anti-IL-17A and IL-17A/F); not shown: c-myc, His6 tag
B3: 06E11 (VHH)
VHH: EVQLVESGGGLVQAGGSLRLSCPVSGRAFSRGRLGWFRQAPGKEREFVAVAHWSGAITSYADSVKGRFTFSRDNAKNTMNLQMNSLKPEDTAVYYCAADSETSGNWVYWGQGTQVTVSS
notes: Class 3
B4: 24B08 (VHH)
VHH: EVQLVESGGGLVQAGGSLRLSCAVSGGTFSTYKMGWFRQAPGKEREIVARISTNGPTAYAEFVKGRFTVSRENTKNTVYLQMNSLNIEDTAVYYCAAGYDSLFAGYDYWGQGTQVTVSS
notes: Class 3
B5: 11A06 (VHH)
VHH: EVQLVESGGGLVQPGESLRLSCKASGFSLDYYALGWFRQAPGKEREGISCITSSDASAYYTDSVKGRFTISRDNSKNTVYLQMNSLKTEDTAIYYCAAALLTCSSYYDAYTYWGQGTQVTVSS
notes: as for B2
B6: 04G01 (VHH)
VHH: EVQLVESGGGLVQAGGSQRLSCTASGTIVNIHVMGWYRQAPGKQRELVALIFSGGSADYADSVKGRFTISRDNAKNTVYLEMNSLKAEDTAVYYCAAEIGYYSGGTYYSSEAHWGQGTQVTVSS
notes: Class 2 Nanobody (anti-IL-17A and IL-17A/F); also called IL17MS04G01; not shown: c-myc, His6 tag
B7: 04B09 (VHH)
VHH: EVQLVESGGGLVQPGGSLRLSCAASGFTLGYYAIGWFRQAPGKEREGVSCDSSSDGDTYYANSVKGRFTISTDNGKNTVYLQMNSLKPEDTAVYYCATCTDWNYDYWGQGTQVTVSS
notes: as for B2
B8: 02A08 (VHH)
VHH: EVQLVESGGGVVQPGGSLRLSCADSERSFSFNAMGWFRQAPGKEREFVAAISATGDDTYYADSVKGRFAISRDTARNTVYLQMNSLKPEDTAVYYCGARVNFDGTVSYTNDYAYWGQGTQVTVSS
notes: as for B2
B9: 09G10 (VHH)
VHH: EVQLVESGGGLVQAGGSLRLSCAASDSVFTAKAVGWYRQPPGLQREWVAIITSGGKTNYADSSVKGRFTVSVDKVKNTVTLQMNSLKPEDTAVYYCYAQWMGRDYWGQGTQVTVSS
notes: as for B2
B10: 13B05 (VHH)
VHH: EVQLVESGGRLVQAGGSLRLSCAASGRTFTSYPMGWFRQAPGKEREFVAAISMSGDDTAYTDFVRGRFTISRDDARNTVYLHMTSLKPEDTAVYYCAARTSYDGTYDYIDDYSYWGQGTQVTVSS
notes: as for B1
B11: 07B09 (VHH)
VHH: EVQLVESGGGLVQAGGSLRLSCGASGGTFSSYATGWFRQAPGKEREFVAVLRWSDGHTAYADSVKGRFTISRDGAKNTMYLQMSSLKPEDTAIYYCTTATRPGEWDYWGQGTQVTVSS
notes: Class 3
B12: 08H01 (VHH)
VHH: EVQLVESGGGLVQAGGSLRLSCGASGGTFSSYATGWFRQAPGKEREFVAVLRWSDSHTAYADSVEGRFTISRDGAKNTVYLQMSSLKPEDTAIYYCTTGTRPGEWHYWGQGTQVTVSS
notes: Class 3
B13: 24G10 (VHH)
VHH: EVQLVESGGGLVQAGGSLRLSCGAAGGTFSSYATGWFRQAPGKEREFVAVFRWSDSHTAYADSVKGRFTISRDGAKNTLYLQMSSLKPEDTAIYYCTTATRPGEWDYWGQGTQVTVSS
notes: Class 3
B14: 13E05 (VHH)
VHH: EVQLVESGGGKVQAGDSLTLSCVASGGTFSNYAAWFRQAPGKDRRELVVSIFRTGSITYTADSVKGRFTASRVNTKNTVYLQMNSLKPEDTAVYYCASAYNPGVGYDYWGQGTQVTVSS
notes: as for B1
B15: 07B11 (VHH)
VHH: EVQLVESGGGLVQAGGSLRLSCVASGRAFSSYVMGWFRQAPGMEREFVALIRWSDGITGYVDSVKGRFTISRDNAKNTVYLQMNSLKPEDTAVYYCAAAVRPGDYDYWGQGTQVTVSS
notes: Class 3
B16: 01A01 (VHH)
VHH: EVQLVESGGGLVQAGGSLRLSCAASGFTFDDYDIGWFRQAPGKEREGVSCFTSSDGRTFYADSVKGRFTVSADNAKNTVYLQMNSLEPEDTAVYFCAAVNTFDESAYAAFACYDVVRWGQGTQVTVSS
notes: as for B1

Experiments:
[1] = target: T5, human IL-17A (human, UniProt Q16552 24-155, biotinylated with Sulfo-NHS-LC-Biotin in the AlphaScreen assays only); test: AlphaScreen competition, hIL-17A - IL-17RC-Fc;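 also: Read-out after 1 h at room temperature with the receptor Fc-fusion, Acceptor beads and streptavidin-coated Donor beads present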
T5 construct: also called hIL-17A; recombinant human IL-17A
Experimental: (§1) To this mixture, the IL-17RA or IL-17RC Fc-fusions, Acceptor beads and the streptavidin Donor beads were added and further incubated for 1 hour at RT.

[2] = target: T5, human IL-17A; test: cell-based or functional assay
[3] = target: T5, human IL-17A; test: SPR Biacore, hIL-17A on chip; purified protein
[4] = target: T5, human IL-17A; test: AlphaScreen competition, hIL-17A - IL-17RA-Fc;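 also: receptor Fc-fusion plus Acceptor and streptavidin Donor beads incubated with the mixture for 1 h at room temperature before reading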
Experimental: as §1

[5] = target: guinea pig IL-17A (guinea pig); test: ELISA, coated IL-17A
Experimental: (§2) Binding of a selected panel of anti-IL-17 Nanobodies to IL-17 of other species was assessed using a binding ELISA. […] HRP (horseradish peroxidase) conjugated anti-myc (Serotec, MCA 2200P) was used for detection using esTMB as substrate.

[6] = target: T1, rat IL-17F; test: ELISA, coated IL-17F;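 also: binding ELISA on coated antigen from various species, with bound Nanobodies revealed by an HRP-linked anti-myc antibody and esTMB substrate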
Experimental: as §2

[7] = target: T2, mouse IL-17F; test: ELISA, coated IL-17F;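 also: binding ELISA on coated antigen from various species, with bound Nanobodies revealed by an HRP-linked anti-myc antibody and esTMB substrate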
Experimental: as §2

[8] = target: T6, human IL-17A (human, UniProt Q16552 24-155); test: ELISA, coated IL-17A
T6 construct: secreted form (GenBank U32659) expressed in Hek293 with C-terminal 6-His; also called hIL-17A; IL-17A-6HIS
Experimental: as §2

[9] = target: T3, marmoset IL-17A; test: ELISA, coated IL-17A
Experimental: as §2

[10] = target: T7, human IL-17A/F heterodimer (human, UniProt Q16552 24-155; Q96PD4 31-163, limits assumed, biotinylated with Sulfo-NHS-LC-Biotin in the AlphaScreen assays only); test: SPR Biacore, hIL-17A/F on chip; purified protein
T7 construct: also called hIL-17A/F

[11] = target: T7, human IL-17A/F heterodimer; test: AlphaScreen competition, hIL-17A/F - IL-17RA-Fc
Experimental: as §1

[12] = target: T7, human IL-17A/F heterodimer; test: AlphaScreen competition, hIL-17A/F - IL-17RC-Fc
Experimental: as §1

[13] = target: T7, human IL-17A/F heterodimer; test: cell-based or functional assay
[14] = target: T4, human IL-17F; test: SPR Biacore, hIL-17F on chip; periplasmic extract (*); NB = no binding

T5 sequence (Q16552 other isoform, or with tags, fused parts or gaps): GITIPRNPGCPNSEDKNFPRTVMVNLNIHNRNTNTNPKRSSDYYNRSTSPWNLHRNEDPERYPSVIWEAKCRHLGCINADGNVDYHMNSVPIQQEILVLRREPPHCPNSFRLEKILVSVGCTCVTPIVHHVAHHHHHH
T6 sequence (Q16552 other isoform, or with tags, fused parts or gaps): as above
T7 sequence (Q16552 24-155 limits assumed, chain 1 of 2, one chain of several): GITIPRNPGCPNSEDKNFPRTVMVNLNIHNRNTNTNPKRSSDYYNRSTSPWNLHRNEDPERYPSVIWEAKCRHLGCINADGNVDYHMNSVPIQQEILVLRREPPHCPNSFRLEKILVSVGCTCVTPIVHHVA

Binder	IC50 [1]	IL-17A-induced IL-6 production in HT-1080 cells, Emax [2]	IL-17A-induced IL-6 production in HT-1080 cells, IC50 [2]	koff [3]	IC50 [4]	OD [5]	OD [6]	OD [7]	further results
B1	4.8 nM	73%	130 nM	0.0079 s⁻¹	2.12 nM				
B2	0.371 nM	101%	4.2 nM	0.0002 s⁻¹	0.084 nM				
B3						0.006 OD	0.0085 OD	0.0215 OD	
B4						0.012 OD	0.0035 OD	-0.0015 OD	OD [8]: 0.103 OD; OD [9]: 0.129 OD
B5	0.461 nM	98.5%	4 nM	0.00016 s⁻¹	0.081 nM				koff [10]: 3.8e-05 s⁻¹; IC50 [11]: 0.14 nM; IC50 [12]: 0.039 nM; IL-17A/F-induced IL-6 production in HT-1080 cells, Emax [13]: 106%; IL-17A/F-induced IL-6 production in HT-1080 cells, IC50 [13]: 28.1 nM
B6	0.217 nM	113%	5.4 nM	0.00018 s⁻¹	0.014 nM				koff [10]: 0.00023 s⁻¹; IC50 [11]: 0.067 nM; IC50 [12]: 0.039 nM; IL-17A/F-induced IL-6 production in HT-1080 cells, Emax [13]: 104%; IL-17A/F-induced IL-6 production in HT-1080 cells, IC50 [13]: 34.7 nM; binding result [14]: no binding
B7									binding result [14]: no binding
B8	0.419 nM	103%	8.8 nM	0.00042 s⁻¹	0.126 nM				
B9	0.323 nM	99%	4 nM	0.00012 s⁻¹	0.046 nM				koff [10]: 0.00013 s⁻¹; IC50 [11]: 0.101 nM; IC50 [12]: 0.12 nM; IL-17A/F-induced IL-6 production in HT-1080 cells, Emax [13]: 108%; IL-17A/F-induced IL-6 production in HT-1080 cells, IC50 [13]: 22.2 nM; binding result [14]: no binding
B10	0.249 nM	104%	14 nM	0.0003 s⁻¹	0.118 nM				
B11						0.009 OD	0.0025 OD	-0.0015 OD	OD [8]: 0.005 OD; OD [9]: 0.005 OD
B12						0.007 OD	0.0045 OD	-0.0005 OD	
B13						0.008 OD	0.0025 OD	-0.0005 OD	OD [8]: 0.009 OD
B14	1.09 nM	101%	12.3 nM	0.0016 s⁻¹	0.159 nM				
B15						0.007 OD	-0.0105 OD	-0.0005 OD	OD [8]: 0.03 OD
B16	0.211 nM	104%	2.7 nM	8.5e-05 s⁻¹	0.051 nM				
